Data: paper PMC9023272 (Nucleic Acids Research, 2022)

Columns and labels:
[1] = target: T1, DEAD-box protein 5 (Dbp5), full length (Saccharomyces cerevisiae, UniProt P20449 1-482); test: detailed balance of Scheme 3 from measured equilibrium constants
T1 sequence (looked up): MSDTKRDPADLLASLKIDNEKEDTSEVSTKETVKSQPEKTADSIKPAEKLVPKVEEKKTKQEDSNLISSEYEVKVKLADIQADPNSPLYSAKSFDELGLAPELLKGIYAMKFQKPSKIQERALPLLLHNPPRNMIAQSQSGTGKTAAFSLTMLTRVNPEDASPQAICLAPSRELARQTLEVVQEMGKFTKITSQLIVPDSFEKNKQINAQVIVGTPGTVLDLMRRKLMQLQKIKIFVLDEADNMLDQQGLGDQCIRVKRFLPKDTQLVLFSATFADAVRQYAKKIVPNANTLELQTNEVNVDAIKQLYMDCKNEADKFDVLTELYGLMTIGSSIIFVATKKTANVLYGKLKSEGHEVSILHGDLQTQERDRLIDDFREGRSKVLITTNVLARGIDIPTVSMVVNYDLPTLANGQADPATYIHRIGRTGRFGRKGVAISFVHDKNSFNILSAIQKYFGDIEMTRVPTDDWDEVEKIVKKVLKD

[2] = target: T1, DEAD-box protein 5 (Dbp5), full length; test: as above; remark: listed apart in the source
[3] = target: T1, DEAD-box protein 5 (Dbp5), full length; test: as above; remark: listed apart in the source
[4] = target: T1, DEAD-box protein 5 (Dbp5), full length; test: detailed balance of Scheme 1 from measured equilibrium constants
[5] = target: T1, DEAD-box protein 5 (Dbp5), full length; test: stopped-flow fluorescence

Kd [1]: 500 ± 200 nM
Kd [2]: 1.5 ± 0.8 nM
Kd [3]: 600 ± 200 nM
Kd [4]: 800 ± 300 nM
Kd [5]: 170 ± 150 nM
B1: Gle1 (a.a. 244–538), soluble truncated (domain or fragment, Saccharomyces cerevisiae, UniProt Q12315 244-538, looked up)
chain: TNFDKISKMFWHYKDKIAQIKQDIVLPIKKADVNVRNLLSRHKRKINPKFGQLTNSNQQLFKIQNELTQLINDTKGDSLAYHWILNFIAKAVVHQAETEVRVKPESALPLGKLTLYLLVQFPELQELFMARLVKKCPFVIGFTCEIDTEKGRQNMGWKRNNENKWEDNTSYDERMGGILSLFAIITRLQLPQEFITTTSHPFPIALSWHILARICNTPLNLITNTHFVILGSWWDAAAVQFLQAYGNQASKLLILIGEELTSRMAEKKYVGAARLRILLEAWQNNNMESFPEMSP
